Test results from patent US20210253698A1 (AFFIMED, published 2021).

Legend:
[1] = molecular target: human CD16A (FcγRIIIA) on primary human NK cells (human) (UniProt P08637); assay: flow cytometry on primary human NK cells, 37 C, buffer
[2] = molecular target: Human CD16A-158V ECD-monomeric Fc fusion antigen (human) (UniProt P08637); assay: SPR (Biacore T200), receptor-mono-Fc captured, 1:1 model
[3] = molecular target: Cynomolgus CD16A ECD-monomeric Fc fusion antigen (cynomolgus) (UniProt Q8SPW2); assay: ELISA, antigen coated at 1.5 µg/mL (32 nM), scFv titrated
[4] = molecular target: Human CD16A-158F ECD-monomeric Fc fusion antigen (human) (UniProt P08637); assay: as above
[5] = molecular target: Human CD16A-158V ECD-monomeric Fc fusion antigen (human) (UniProt P08637); assay: as above
[6] = molecular target: Human CD16A-158V ECD-monomeric Fc fusion antigen (human) (UniProt P08637); assay: ELISA, CD16 antigen coated at 0.5 µg/mL (10 nM), without competition
[7] = molecular target: Human CD16A-158V ECD-monomeric Fc fusion antigen (human) (UniProt P08637); assay: ELISA, CD16 antigen coated at 0.5 µg/mL (10 nM), competitor 8-10 nM 3G8 IgG
[8] = molecular target: human CD16A (FcγRIIIA) on primary human NK cells (human) (UniProt P08637); assay: flow cytometry on primary human NK cells, 37 C, with 10 mg/mL polyclonal human IgG
[9] = molecular target: human CD16A-158V and cynomolgus CD16 (value not tied to one of the two); assay: SPR, 50 nM analyte, receptor captured, 3 h dissociation
[10] = molecular target: T1, B-cell maturation antigen (BCMA) (human, UniProt Q02223 1-54, limits assumed); assay: flow cytometry on Raji cells (low BCMA), APC-A histogram, % of Max
T1 construct: also called CD269; TNFRSF17
T1 sequence (looked up): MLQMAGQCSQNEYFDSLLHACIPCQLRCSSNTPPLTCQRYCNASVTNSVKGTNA

[11] = molecular target: T1, B-cell maturation antigen (BCMA); assay: not stated; binding to BCMA
CD16A = molecular target: T2, CD16A (human, UniProt P08637 17-208); assay: not stated; binding to CD16A
T2 construct: also called CD16A antigen; FcγRIIIA

[12] = molecular target: T3, human CD16A (FcγRIIIA) on primary human NK cells (human, UniProt P08637 17-254); assay: flow cytometry on freshly prepared human NK cells, DyLight650-labelled antibody, in the presence of 10 mg/mL SCIG (Hizentra), delta gMFI
T3 construct: whole, on cells
Description: Fresh prepared human NK cells were pre-incubated for 1-hours at 37 C with and without 10 mg/mL of SCIG (Hizentra), then stained with DyLight650 labeled anti-AFM26/CD16a at indicted concentrations. […] In FIGS. 40C and 40D, human NK cells were isolated from a healthy human blood donor. NK (FIG. 40D) and MM.1S cells (FIG. 40C) were preincubated separately in 50% human autologous serum for 2 hours prior to assay setup. NK cells were co-cultured with MM.15 tumor cell line at an approximate E:T ration of 5, and exposed to 10-fold serial diluted test articles from 0.1-100nM for approximately 20 hours at 37 C with 5% CO₂. Antibody staining with CD138 and CD56 followed by FACS were used to monitor cytotoxicity of MM.15 target cells and NK survival. Data were analyzed with the software programs FlowJo and GraphPad Prism 6.

[13] = molecular target: T4, Human CD16A-158F ECD-monomeric Fc fusion antigen (human, UniProt P08637 17-208, biotinylated in SPR); assay: SPR (Biacore T200), receptor-mono-Fc captured, 1:1 model
T4 construct: extracellular domain; not shown: monomeric Fc (Ying et al. 2012) fusion partner, Avi tag in SPR
Description: IgGs and scFvs were prepared in HBS-P+buffer at indicated concentration series and are injected to reference surfaces (Fc 1, Fc 3) and receptor captured surface (Fc 2, Fc 4) at a flow rate of 40 μL/min (association time 180 s, dissociation time 300 s). […] Data were referenced by subtraction of signals from reference surfaces (Fc 2-1, Fc 4-3) and zero concentration (buffer control) signals. Kinetic evaluation was performed by fitting data to a 1:1 binding model (Rmax and RI locally fitted) using Biacore T200 Evaluation Software (v3.1). […] Referenced curves were normalized to each curves maximum and overlaid. For investigation of receptor retention via qualitative dissociation phase comparison of monovalent and bivalent CD16A-binding antibodies or ligands, biotinylated mono-Fc(silent)-Avi-tagged receptors were prepared in HBS-P+and captured (human CD16A-158V approx. 160RU, cynomolgus CD16 approx. 320 RU) in flow cells Fc 2 and […].

[14] = molecular target: T5, Human CD16A-158V ECD-monomeric Fc fusion antigen (human, UniProt P08637 17-208); assay: SPR multi-cycle kinetics (Biacore T200), 4-fold dilution series over captured human CD16A-158V
T5 construct: extracellular domain; also called CD16A-158V ECD-Fc fusion antigen; biotinylated mono-Fc(silent)-Avi-tagged receptor; not shown: monomeric Fc (Ying et al. 2012) fusion partner, Avi tag in SPR
Description: IgGs and scFvs were prepared in HBS-P+buffer at indicated concentration series and are injected to reference surfaces (Fc 1, Fc 3) and receptor captured surface (Fc 2, Fc 4) at a flow rate of 40 μL/min (association time 180 s, dissociation time 300 s). […] Data were referenced by subtraction of signals from reference surfaces (Fc 2-1, Fc 4-3) and zero concentration (buffer control) signals. Kinetic evaluation was performed by fitting data to a 1:1 binding model (Rmax and RI locally fitted) using Biacore T200 Evaluation Software (v3.1).

[15] = molecular target: human CD16A (SEQ ID NO:48) (human, UniProt P08637 17-208); assay: SPR (Biacore T200), purified scFv, monovalent binding affinity; human CD16A
[16] = molecular target: cynomolgus CD16A (SEQ ID NO:49) (cynomolgus, UniProt Q8SPW2 17-208); assay: SPR (Biacore T200), purified scFv, monovalent binding affinity; cynomolgus CD16A
[17] = molecular target: T6, biotinylated, recombinant human CD16A(48R-158V) fused to human IgG1 Fc portion (human, UniProt P08637 17-208, limits assumed, biotinylated); assay: ELISA, antibody coated, soluble biotinylated CD16A-Fc titrated
T6 construct: also called soluble CD16A antigen; recombinant human CD16A soluble antigen; not shown: human IgG1 Fc portion
T6 sequence (P08637 17-208 L66R/F176V limits assumed): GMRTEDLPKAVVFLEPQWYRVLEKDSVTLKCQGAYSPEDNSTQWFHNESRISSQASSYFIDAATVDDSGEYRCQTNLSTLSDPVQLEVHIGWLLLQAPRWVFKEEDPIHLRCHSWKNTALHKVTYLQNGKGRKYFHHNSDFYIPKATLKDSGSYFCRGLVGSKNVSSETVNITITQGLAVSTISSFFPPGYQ

T4 sequence (P08637 17-208): as the sequence (P08637 17-208 L66R/F176V limits assumed) above, with R50L, V160F counted along it
Sequence of Human CD16A-158V ECD-monomeric Fc fusion antigen (human) (P08637 17-208 F176V): as the sequence (P08637 17-208 L66R/F176V limits assumed) above, with R50L counted along it
Sequence of human CD16A (FcγRIIIA) on primary human NK cells (human) (P08637 17-254): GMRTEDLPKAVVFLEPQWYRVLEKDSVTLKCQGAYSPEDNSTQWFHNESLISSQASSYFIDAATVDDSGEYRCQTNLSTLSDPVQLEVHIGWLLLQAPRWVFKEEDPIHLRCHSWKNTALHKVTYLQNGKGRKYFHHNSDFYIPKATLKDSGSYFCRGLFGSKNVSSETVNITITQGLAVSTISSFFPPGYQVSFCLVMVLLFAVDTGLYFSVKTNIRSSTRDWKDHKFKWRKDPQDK
Sequence of human CD16A (SEQ ID NO:48) (P08637 17-208 limits assumed): as the sequence (P08637 17-208 L66R/F176V limits assumed) above, with R50L, V160F counted along it
T2 sequence (P08637 17-208 limits assumed): as the sequence (P08637 17-208 L66R/F176V limits assumed) above, with R50L, V160F counted along it
Sequence of Human CD16A-158F ECD-monomeric Fc fusion antigen (human) (P08637 17-208): as the sequence (P08637 17-208 L66R/F176V limits assumed) above, with R50L, V160F counted along it
T3 sequence (P08637 17-254): as the sequence (P08637 17-254) above
T5 sequence (P08637 17-208 F176V): as the sequence (P08637 17-208 L66R/F176V limits assumed) above, with R50L counted along it
Sequence of Cynomolgus CD16A ECD-monomeric Fc fusion antigen (cynomolgus) (Q8SPW2 17-208): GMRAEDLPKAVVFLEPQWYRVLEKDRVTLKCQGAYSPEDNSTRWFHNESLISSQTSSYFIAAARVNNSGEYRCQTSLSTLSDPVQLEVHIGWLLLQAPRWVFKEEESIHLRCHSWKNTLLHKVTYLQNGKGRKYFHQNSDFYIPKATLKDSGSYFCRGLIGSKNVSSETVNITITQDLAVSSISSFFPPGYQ
Sequence of cynomolgus CD16A (SEQ ID NO:49) (Q8SPW2 17-208 limits assumed): as the sequence (Q8SPW2 17-208) above

Molecule: scFv 3G8
- Kd [1]: 3.8 nM
- Kd [2]: 8.6 nM
- EC50 [3]: 0.87 nM
- EC50 [4]: 0.58 nM
- EC50 [5]: 0.33 nM
- EC50 [6]: 0.9 nM
- EC50 [7]: 19.7 nM
- Kd [8]: 64.6 nM

Molecule: IgG1 Fc (enhanced, S239D/I332E) (from UniProt P01857 1-330) (antibody)
- percent remaining on the receptor after 3 h of dissociation [9]: 10%

B1: CD16A/BCMA antibody II (bispecific antibody)
TandAb polypeptide VH BCMA-VL CD16A-VH CD16A-VL BCMA: EVQLLESGGGLVQPGGSLRLSCAASGFTFSNYDMAWVRQAPGKGLEWVSSISTRGDITSYRDSVKGRFTISRDNSKNTLYLQMNSLRAEDTAVYYCARQDYYTDYMGFAYWGQGTLVTVSSGGSGGSGGSGGSSYVLTQPSSVSVAPGQTATISCGGHNIGSKNVHWYQQRPGQSPVLVIYQDNKRPSGIPERFSGSNSGNTATLTISGTQAMDEADYYCQVWDNYSVLFGGGTKLTVLGGSQVQLVQSGAEVKKPGESLKVSCKASGYTFTSYYMHWVRQAPGQGLEWMGAIEPMYGSTSYAQKFQGRVTMTRDTSTSTVYMELSSLRSEDTAVYYCARGSAYYYDFADYWGQGTLVTVSSGGSGGSGGSGGSAIQMTQSPSSLSASVGDRVTITCRASEDIYNGLAWYQQKPGKAPKLLIYGASSLQDGVPSRFSGSGSGTEFTLTISSLQPEDEATYYCAGPHKYPLTFGGGTKVEIK
notes: also called Fc-less TandAb BCMA/CD16A
- binding result [10]: binds

B2: CD16A/BCMA antibody I (bispecific antibody, human IgG1, kappa)
heavy: EVQLLESGGGLVQPGGSLRLSCAASGFTFSNYDMAWVRQAPGKGLEWVSSISTRGDITSYRDSVKGRFTISRDNSKNTLYLQMNSLRAEDTAVYYCARQDYYTDYMGFAYWGQGTLVTVSSASTKGPSVFPLAPSSKSTSGGTAALGCLVKDYFPEPVTVSWNSGALTSGVHTFPAVLQSSGLYSLSSVVTVPSSSLGTQTYICNVNHKPSNTKVDKKVEPKSCDKTHTCPPCPAPEFEGGPSVFLFPPKPKDTLMISRTPEVTCVVVAVSHEDPEVKFNWYVDGVEVHNAKTKPREEQYNSTYRVVSVLTVLHQDWLNGKEYKCKVSNKALPAPIEKTISKAKGQPREPQVYTLPPSREEMTKNQVSLTCLVKGFYPSDIAVEWESNGQPENNYKTTPPVLDSDGSFFLYSKLTVDKSRWQQGNVFSCSVMHEALHNHYTQKSLSLSPGGGGGSGGGGSGGGGSGGGGSGGGGSGGGGSSYVLTQPSSVSVAPGQTATISCGGHNIGSKNVHWYQQRPGQSPVLVIYQDNKRPSGIPERFSGSNSGNTATLTISGTQAMDEADYYCQVWDNYSVLFGGGTKLTVLGGSGGSGGSGGSGGSGGSGGSQVQLVQSGAEVKKPGESLKVSCKASGYTFTSYYMHWVRQAPGQGLEWMGAIEPMYGSTSYAQKFQGRVTMTRDTSTSTVYMELSSLRSEDTAVYYCARGSAYYYDFADYWGQGTLVTVSS
light: AIQMTQSPSSLSASVGDRVTITCRASEDIYNGLAWYQQKPGKAPKLLIYGASSLQDGVPSRFSGSGSGTEFTLTISSLQPEDEATYYCAGPHKYPLTFGGGTKVEIKRTVAAPSVFIFPPSDEQLKSGTASVVCLLNNFYPREAKVQWKVDNALQSGNSQESVTEQDSKDSTYSLSSTLTLSKADYEKHKVYACEVTHQGLSSPVTKSFNRGEC
notes: also called scFv-IgAb I BCMA/CD16a; BCMA/CD16A antibody I
- Kd [11]: ~2 nM
- Kd (CD16A): ~16 nM
- EC50 (read off the curve) [12]: ~40 nM

B3: IgG1 Fc (silenced, L234F/L235E/D265A) (antibody)
heavy: ASTKGPSVFPLAPSSKSTSGGTAALGCLVKDYFPEPVTVSWNSGALTSGVHTFPAVLQSSGLYSLSSVVTVPSSSLGTQTYICNVNHKPSNTKVDKKVEPKSCDKTHTCPPCPAPEFEGGPSVFLFPPKPKDTLMISRTPEVTCVVVAVSHEDPEVKFNWYVDGVEVHNAKTKPREEQYNSTYRVVSVLTVLHQDWLNGKEYKCKVSNKALPAPIEKTISKAKGQPREPQVYTLPPSRDELTKNQVSLTCLVKGFYPSDIAVEWESNGQPENNYKTTPPVLDSDGSFFLYSKLTVDKSRWQQGNVFSCSVMHEALHNHYTQKSLSLSPGK
notes: also called human IgG1 Fc-silenced
- Kd [13]: 34700 nM
- koff [13]: 0.71 s⁻¹
- kon [13]: 20400 M⁻¹ s⁻¹
- binding result [14]: no binding

B4: anti-CD16A Fv of SEQ ID NOs:1 and 2 (scFv)
chain 1: QVQLVQSGAEVKKPGESLKVSCKASGYTFTSYYMHWVRQAPGQGLEWMGIINPSGGSTSYAQKFQGRVTMTRDTSTSTVYMELSSLRSEDTAVYYCARGSAYYYDFADYWGQGTLVTVSS
chain 2: SYVLTQPSSVSVAPGQTATISCGGHNIGSKNVHWYQQRPGQSPVLVIYQDNKRPSGIPERFSGSNSGNTATLTISGTQAMDEADYYCQVWDNYSVLFGGGTKLTVL
notes: Measured as purified scFv
- Kd [15]: 40.5 nM
- Kd [16]: 132 nM

B5: scDb-Tribody_01 (other)
VH: QVQLVQSGAEVKKPGESLKVSCKASGYTFTSYYMHWVRQAPGQGLEWMGIINPSGGSTSYAQKFQGRVTMTRDTSTSTVYMELSSLRSEDTAVYYCARGSAYYYDFADYWGQGTLVTVSS
VL: SYVLTQPSSVSVAPGQTATISCGGHNIGSKNVHWYQQRPGQSPVLVIYQDNKRPSGIPERFSGSNSGNTATLTISGTQAMDEADYYCQVWDNYSVLFGGGTKLTVL
notes: Trispecific; LSIV21 scDb VL-VL-VH-VH; HSA(N1) Fab, EGFR; no hinge; no Fc; Chains: anti-CD16A Fv only
- EC50 [17]: 0.65 nM

B6: CD16A/BCMA antibody III (bispecific antibody)
chain 1: DKTHTCPPCPAPEFEGGPSVFLFPPKPKDTLMISRTPEVTCVVVAVSHEDPEVKFNWYVDGVEVHNAKTKPREEQYNSTYRVVSVLTVLHQDWLNGKEYKCKVSNKALPAPIEKTISKAKGQPREPQVYTLPPSREEMTKNQVSLTCLVKGFYPSDIAVEWESNGQPENNYKTTPPVLDSDGSFFLTSKLTVDKSRWQQGNVFSCSVMHEALHNHYTQKSLSLSPGGGGGSGGGGSSYVLTQPSSVSVAPGQTATISCGGHNIGSKNVHWYQQRPGQSPVLVIYQDNKRPSGIPERFSGSNSGNTATLTISGTQAMDEADYYCQVWDNYSVLFGGGTKLTVLGGSGGSQVQLVQSGAEVKKPGESLKVSCKASGYTFTSYYMHWVRQAPGQGLEWMGAIEPMYGSTSYAQKFQGRVTMTRDTSTSTVYMELSSLRSEDTAVYYCARGSAYYYDFADYWGQGTLVTVSSGGSGGSGGSGGSGGSGGSSYVLTQPSSVSVAPGQTATISCGGHNIGSKNVHWYQQRPGQSPVLVIYQDNKRPSGIPERFSGSNSGNTATLTISGTQAMDEADYYCQVWDNYSVLFGGGTKLTVLGGSGGSQVQLVQSGAEVKKPGESLKVSCKASGYTFTSYYMHWVRQAPGQGLEWMGAIEPMYGSTSYAQKFQGRVTMTRDTSTSTVYMELSSLRSEDTAVYYCARGSAYYYDFADYWGQGTLVTVSSAAAGSHHHHHH
chain 2: EVQLLESGGGLVQPGGSLRLSCAASGFTFSNYDMAWVRQAPGKGLEWVSSISTRGDITSYRDSVKGRFTISRDNSKNTLYLQMNSLRAEDTAVYYCARQDYYTDYMGFAYWGQGTLVTVSSGGGGSGGGGSGGGGSAIQMTQSPSSLSASVGDRVTITCRASEDIYNGLAWYQQKPGKAPKLLIYGASSLQDGVPSRFSGSGSGTEFTLTISSLQPEDEATYYCAGPHKYPLTFGGGTKVEIKDKTHTCPPCPAPEFEGGPSVFLFPPKPKDTLMISRTPEVTCVVVAVSHEDPEVKFNWYVDGVEVHNAKTKPREEQYNSTYRVVSVLTVLHQDWLNGKEYKCKVSNKALPAPIEKTISKAKGQPREPQVYTLPPSREEMTKNQVSLYCLVKGFYPSDIAVEWESNGQPENNYKTTPPVLDSDGSFFLYSKLTVDKSRWQQGNVFSCSVMHEALHNHYTQKSLSLSPG
notes: also called KiH-scDb-Fc BCMA/CD16a
- binding result [10]: binds
